Laboratory results taken from patent US20150210761A1 (SAMSUNG ELECTRONICS, published 2015).

Experiments:
Test in all cases: ELISA; antibody coated, FLAG-tagged full-length Ang2 mutant, anti-FLAG-HRP detection
[1] = target: T1, Ang2 mutant I434 (full-length Ang2) (human, UniProt O15123 19-496, limits assumed)
T1 sequence: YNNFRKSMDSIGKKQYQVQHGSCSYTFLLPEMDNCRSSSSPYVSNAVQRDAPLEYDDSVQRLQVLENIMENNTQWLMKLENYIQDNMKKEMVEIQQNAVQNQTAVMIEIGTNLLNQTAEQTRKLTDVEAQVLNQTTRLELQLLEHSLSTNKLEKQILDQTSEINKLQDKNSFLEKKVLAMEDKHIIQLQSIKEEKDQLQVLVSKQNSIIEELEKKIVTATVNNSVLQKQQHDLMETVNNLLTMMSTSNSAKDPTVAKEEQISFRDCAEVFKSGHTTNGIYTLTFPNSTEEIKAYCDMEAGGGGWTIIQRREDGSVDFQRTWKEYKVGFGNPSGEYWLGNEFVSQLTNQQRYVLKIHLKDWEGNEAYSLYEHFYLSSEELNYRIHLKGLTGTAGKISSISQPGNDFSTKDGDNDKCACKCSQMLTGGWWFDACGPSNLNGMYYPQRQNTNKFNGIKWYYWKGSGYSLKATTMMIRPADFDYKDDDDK
Description: (§1) A 96-well MaxiSorp™ flat-bottom plate (Nunc) was coated with 50 μl of each anti-Ang2 antibody (400 nM). After that, the plate was washed five times with 0.05% (v/v) Tween-20-containing PBS (PBST) and then blocked with 1% (v/v) BSA-containing PBS at a room temperature for 2 hours. S417, P419, N421, I434, D448, A449, P452, Y460, N467, K468, or F469 residue of Ang2 (SEQ ID NO: 27) was mutated (substituted) with alanine and tagged with FLAG (N-[…]-C; 1012 Da) and then 250 ng of them was each added to each well to the plate, which was allowed to react at a room temperature for 2 hours.
(§2) Thereafter, the plate was washed five times with 0.05% (v/v) Tween-20-containing PBS and then, an HRP-conjugated anti-FLAG antibody (SIGMA) diluted in 1% (v/v) BSA-containing PBS at 1:5,000 ratio (v/v) was added in the amount of 50 μl to each well to react at a room temperature for 1 hour, followed by washing five times with 0.1% (v/v) Tween-20-containing PBS.
(§3) Finally, 100 μl of TMB substrate (cell signal) was added to each well of the plate to induce color development for 3 minutes and then, the reaction was ceased by the addition of 100 μl of stop solution (Cell signaling) and OD450 values were measured on a plate reader (Molecular Devices). By comparing binding intensity to mutated Ang2 to binding intensity to non-mutated (native) Ang2, each epitope for the Ang2 antibodies was identified.

[2] = target: T2, Ang2 mutant K468 (full-length Ang2) (human, UniProt O15123 19-496, limits assumed)
T2 sequence: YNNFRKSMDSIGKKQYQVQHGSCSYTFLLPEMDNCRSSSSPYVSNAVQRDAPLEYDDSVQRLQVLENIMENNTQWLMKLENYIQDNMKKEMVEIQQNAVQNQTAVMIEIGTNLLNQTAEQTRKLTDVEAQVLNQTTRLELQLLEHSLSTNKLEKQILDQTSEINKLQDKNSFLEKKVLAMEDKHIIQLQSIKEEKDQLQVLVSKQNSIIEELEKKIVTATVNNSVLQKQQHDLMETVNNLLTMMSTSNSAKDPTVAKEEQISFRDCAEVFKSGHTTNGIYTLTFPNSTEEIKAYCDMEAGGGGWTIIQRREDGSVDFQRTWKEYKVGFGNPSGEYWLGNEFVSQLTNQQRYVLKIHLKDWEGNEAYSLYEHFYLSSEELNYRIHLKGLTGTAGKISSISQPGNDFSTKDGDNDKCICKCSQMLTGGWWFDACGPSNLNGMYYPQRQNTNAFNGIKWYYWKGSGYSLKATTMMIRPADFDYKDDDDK
Description: as §1, §2, §3

[3] = target: T3, Ang2 mutant F469 (full-length Ang2) (human, UniProt O15123 19-496, limits assumed)
T3 sequence: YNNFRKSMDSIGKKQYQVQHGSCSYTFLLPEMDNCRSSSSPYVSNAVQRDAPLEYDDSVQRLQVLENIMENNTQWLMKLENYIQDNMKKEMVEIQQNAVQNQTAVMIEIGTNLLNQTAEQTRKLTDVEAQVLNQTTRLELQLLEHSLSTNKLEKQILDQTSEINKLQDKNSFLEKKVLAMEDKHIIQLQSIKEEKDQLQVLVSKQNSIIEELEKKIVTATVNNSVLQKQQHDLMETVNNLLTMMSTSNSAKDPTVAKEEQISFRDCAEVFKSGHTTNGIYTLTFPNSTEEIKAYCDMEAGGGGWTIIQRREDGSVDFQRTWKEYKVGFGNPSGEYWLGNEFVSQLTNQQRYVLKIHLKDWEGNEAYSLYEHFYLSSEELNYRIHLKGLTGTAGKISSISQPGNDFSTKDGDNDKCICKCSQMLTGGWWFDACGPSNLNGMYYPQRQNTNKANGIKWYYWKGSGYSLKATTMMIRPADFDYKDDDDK
Description: as §1, §2, §3

Binding (%) (mutant Ang2 / native Ang2) [1]: 137%
Binding (%) (mutant Ang2 / native Ang2) [2]: 20.5%
Binding (%) (mutant Ang2 / native Ang2) [3]: 41.9%
B1: SAIT-ANG2-AB-m8D3 (antibody, V domains shown)
VH: EVQLQQSGPELVKPGDSVKMSCKASGYTFTDYYMKWVRQSHGKSLQWVGEINPKNGDTFYNQIFKGKATLTVDKSSSTAYMQLTSLTSEDSAVYYCTRENDYDVGFFDYWGQGTSVTVSS
VL: TIVMTQTPKFLLVSAGDRITITCKASQSVSNDVAWYQQKPGQSPKLLIYYASNRYPGVPDRFTGSGYGTDFTFTISTVQAEDLAVYFCQQDYTSPWTFGGGTELEIK
notes: also called hybridoma KCLRF-BP-00308
